According to paper doi:10.1101/2025.08.31.673313 (bioRxiv, 2025):

Molecular target: wild-type KRAS peptide on HLA-C*08:02, on peptide-pulsed cells (Homo sapiens, HLA-C*08:02)
Experiment: flow cytometry on cells

B1: C8K10D5-1 Fab (Fab, V domains shown)
VH: EVQLVESGGGLVQPGRSLRLSCAASGFTFDQYAMHWVRQAPGKGLEWVSGISAYSLSIGYADSVKGRFTISRDNAKNSLYLQMNSLRAEDTAVYYCARGRSEGVYMDGMDIWGSGTLVTVSS
VL: SYVLTQPPSVSVAPGQTARITCGGNNIKYRDVHWYQQKPGQAPVLVVYQDTLRPQGIPERFSGSNSGNMATLTISRVEAGDEADYYCQVWDWDTDHWVFGGGTDLTVL
binding result: no binding (tested: 50 nM Fab)
